Assay results published in publication PMC11931385, “Structural and functional analysis of cancer-associated missense variants in the retinoblastoma protein pocket domain” (The Journal of Biological Chemistry, 2025).
Residue numbers refer to the chain shown, from its start. Names may count otherwise. No end group written: not given here. TMR = tetramethyl rhodamine dye

T1: Rb^P R656Q (human, UniProt P06400 380-788, R656Q)
T1 construct: also called variant 48
T1 sequence (looked up): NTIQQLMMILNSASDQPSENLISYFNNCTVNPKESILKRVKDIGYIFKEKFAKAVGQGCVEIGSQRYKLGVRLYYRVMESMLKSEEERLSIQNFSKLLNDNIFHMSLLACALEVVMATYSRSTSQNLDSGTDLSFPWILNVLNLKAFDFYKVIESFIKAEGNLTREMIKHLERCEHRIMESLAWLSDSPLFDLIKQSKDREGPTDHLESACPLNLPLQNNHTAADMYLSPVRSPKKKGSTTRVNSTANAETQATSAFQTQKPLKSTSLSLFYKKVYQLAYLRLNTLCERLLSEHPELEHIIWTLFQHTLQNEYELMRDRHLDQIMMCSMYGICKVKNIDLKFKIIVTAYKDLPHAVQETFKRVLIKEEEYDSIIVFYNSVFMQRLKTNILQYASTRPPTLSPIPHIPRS

T2: Rb^P M695I (human, UniProt P06400 380-788, M695I)
T2 construct: also called variant 61
T2 sequence (looked up): T1 sequence (looked up) with Q277R, M316I

T3: Rb^P L550I (human, UniProt P06400 380-788, L550I)
T3 construct: also called variant 27
T3 sequence (looked up): T1 sequence (looked up) with L171I, Q277R

T4: Rb^P S648T (human, UniProt P06400 380-788, S648T)
T4 construct: also called variant 46
T4 sequence (looked up): T1 sequence (looked up) with S269T, Q277R

T5: Rb^P M546I (human, UniProt P06400 380-788, M546I)
T5 construct: also called variant 25
T5 sequence (looked up): T1 sequence (looked up) with M167I, Q277R

B1: TMR-E2F1^TD, peptide of the E2F1 transactivation domain (peptide)
peptide: {TMR}-GEGIRDLFDCDFGDLTPLD
notes: also called E2F^TD; source: synthetic peptide, bought: GenScript
B2: TMR-E7^LxCxE, LxCxE peptide of the E7 oncoprotein from HPV (peptide)
peptide: DLYCYEQLN
modifications: also: TMR label, position not given here
notes: source: synthetic peptide, bought: GenScript

Experiments:
Experiment in all cases: fluorescence polarisation; 37 °C, after the 25 °C reading ramped over 7 min to 37 °C and 2 min incubation; unlabeled Rb^P against 1.5 nM TMR-E2F1^TD or 7.5 nM TMR-E7^LxCxE; 25 mM Tris pH 8.0, 200 mM NaCl, 1 mM DTT, 0.1% Tween-20; apparent Kd
Conditions in all cases: both partners purified
Rb^P R656Q = target: T1, Rb^P R656Q
Rb^P M695I = target: T2, Rb^P M695I
Rb^P L550I = target: T3, Rb^P L550I
Rb^P S648T = target: T4, Rb^P S648T
Rb^P M546I = target: T5, Rb^P M546I

| Binder | Kd (Rb^P R656Q) [nM] | Kd (Rb^P M695I) [nM] | Kd (Rb^P L550I) [nM] | Kd (Rb^P S648T) [nM] | Kd (Rb^P M546I) [nM] |
| --- | --- | --- | --- | --- | --- |
| B1 | 325 | 165 | 80 | 58 | 21 |
| B2 | 14 | 93 | 7 | 14 | 13 |
